Assay results as given in patent US20130157953A1, “TREATMENT OF CARDIAC CONDITIONS” (Zealand Pharma A/S, priority 2010, published 2013).
Bridge positions count the residues as written; N and C are the ends. Square brackets hold non-standard residues; d marks the D form. Aib = CC(C)(N)C(=O)O

Assays:
[1] = target: human glucagon-like peptide 1 receptor (GLP-1R) (human, UniProt P43220 24-463); assay: cell-based or functional assay
[2] = target: human glucagon receptor (Glucagon-R) (human, UniProt P47871 26-477); assay: cell-based or functional assay
Sequence of human glucagon receptor (Glucagon-R) (P47871 26-477): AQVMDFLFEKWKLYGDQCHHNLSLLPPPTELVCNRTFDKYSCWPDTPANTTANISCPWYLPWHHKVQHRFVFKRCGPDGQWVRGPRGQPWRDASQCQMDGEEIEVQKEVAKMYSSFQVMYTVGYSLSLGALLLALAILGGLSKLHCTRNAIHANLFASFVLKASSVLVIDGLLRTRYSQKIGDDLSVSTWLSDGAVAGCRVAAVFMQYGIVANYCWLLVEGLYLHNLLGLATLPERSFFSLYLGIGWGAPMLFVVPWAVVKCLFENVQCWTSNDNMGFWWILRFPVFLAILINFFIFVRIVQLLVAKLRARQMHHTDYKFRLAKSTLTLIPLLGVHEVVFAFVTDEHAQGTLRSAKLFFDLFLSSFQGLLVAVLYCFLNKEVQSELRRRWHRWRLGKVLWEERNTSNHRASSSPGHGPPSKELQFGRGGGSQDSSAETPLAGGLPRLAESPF

EC50 (nM) GLP-1R; cAMP content, HEK293 cells expressing human GLP-1R [1]	EC50 (nM) GuR; cAMP content, HEK293 cells expressing the human glucagon receptor [2]	Binder
0.03 nM	0.07 nM	H-HSQGTFTSDYSKYLDSKAAHDFVEWLLKA-NH2 (lactam 24-28; SMILES CC(C)C[C@@H]1NC(=O)[C@H](CC(C)C)NC(=O)[C@H](Cc2c[nH]c3ccccc23)NC(=O)[C@@H](NC(=O)[C@@H](NC(=O)[C@H](Cc2ccccc2)NC(=O)[C@H](CC(=O)O)NC(=O)[C@H](Cc2c[nH]cn2)NC(=O)[C@H](C)NC(=O)[C@H](C)NC(=O)[C@H](CCCCN)NC(=O)[C@H](CO)NC(=O)[C@H](CC(=O)O)NC(=O)[C@H](CC(C)C)NC(=O)[C@H](Cc2ccc(O)cc2)NC(=O)[C@H](CCCCN)NC(=O)[C@H](CO)NC(=O)[C@H](Cc2ccc(O)cc2)NC(=O)[C@H](CC(=O)O)NC(=O)[C@H](CO)NC(=O)[C@@H](NC(=O)[C@H](Cc2ccccc2)NC(=O)[C@@H](NC(=O)CNC(=O)[C@H](CCC(N)=O)NC(=O)[C@H](CO)NC(=O)[C@@H](N)Cc2c[nH]cn2)[C@@H](C)O)[C@@H](C)O)C(C)C)CCC(=O)NCCCC[C@@H](C(=O)N[C@@H](C)C(N)=O)NC1=O) [Compound 261]
0.08 nM	0.06 nM	H-H[Aib]QGTFTSDYSKYLDSKAAHDFVEWLLRA-NH2 (SMILES CC(C)C[C@H](NC(=O)[C@H](CC(C)C)NC(=O)[C@H](Cc1c[nH]c2ccccc12)NC(=O)[C@H](CCC(=O)O)NC(=O)[C@@H](NC(=O)[C@H](Cc1ccccc1)NC(=O)[C@H](CC(=O)O)NC(=O)[C@H](Cc1c[nH]cn1)NC(=O)[C@H](C)NC(=O)[C@H](C)NC(=O)[C@H](CCCCN)NC(=O)[C@H](CO)NC(=O)[C@H](CC(=O)O)NC(=O)[C@H](CC(C)C)NC(=O)[C@H](Cc1ccc(O)cc1)NC(=O)[C@H](CCCCN)NC(=O)[C@H](CO)NC(=O)[C@H](Cc1ccc(O)cc1)NC(=O)[C@H](CC(=O)O)NC(=O)[C@H](CO)NC(=O)[C@@H](NC(=O)[C@H](Cc1ccccc1)NC(=O)[C@@H](NC(=O)CNC(=O)[C@H](CCC(N)=O)NC(=O)C(C)(C)NC(=O)[C@@H](N)Cc1c[nH]cn1)[C@@H](C)O)[C@@H](C)O)C(C)C)C(=O)N[C@@H](CCCNC(=N)N)C(=O)N[C@@H](C)C(N)=O) [Compound 45]
1.4 nM	0.4 nM	H-HSQGTFTSDYSAYLDSRRAQDFVWLMNT-NH2 [Compound 242]
0.09 nM	0.11 nM	H-H[dS]QGTFTSDYSKYLDSKAAHDFVEWLLRA-NH2 (SMILES CC(C)C[C@H](NC(=O)[C@H](CC(C)C)NC(=O)[C@H](Cc1c[nH]c2ccccc12)NC(=O)[C@H](CCC(=O)O)NC(=O)[C@@H](NC(=O)[C@H](Cc1ccccc1)NC(=O)[C@H](CC(=O)O)NC(=O)[C@H](Cc1c[nH]cn1)NC(=O)[C@H](C)NC(=O)[C@H](C)NC(=O)[C@H](CCCCN)NC(=O)[C@H](CO)NC(=O)[C@H](CC(=O)O)NC(=O)[C@H](CC(C)C)NC(=O)[C@H](Cc1ccc(O)cc1)NC(=O)[C@H](CCCCN)NC(=O)[C@H](CO)NC(=O)[C@H](Cc1ccc(O)cc1)NC(=O)[C@H](CC(=O)O)NC(=O)[C@H](CO)NC(=O)[C@@H](NC(=O)[C@H](Cc1ccccc1)NC(=O)[C@@H](NC(=O)CNC(=O)[C@H](CCC(N)=O)NC(=O)[C@@H](CO)NC(=O)[C@@H](N)Cc1c[nH]cn1)[C@@H](C)O)[C@@H](C)O)C(C)C)C(=O)N[C@@H](CCCNC(=N)N)C(=O)N[C@@H](C)C(N)=O) [Compound 44]
